Columns and labels:
[1] = tested on: CsoR H61A (Mycobacterium tuberculosis); test: fluorescence anisotropy; conditions: pH 7.0, 0.2 M NaCl, 2 mM DTT, 25 °C (buffer not stated in the material)
[2] = target: the molecule itself

Molecule | Ka (M-1 (A2 (so in the source); ≤)) [1] | stoichiometry N [2]
cso operator DNA | < 1e+10 | –
H61A Mycobacterium tuberculosis CsoR (natural protein) MSKELTAKKRAALNRLKTVRGHLDGIVRMLESDAYCVDVMKQISAVQSSLERANRVMLHNALETCFSTAVLDGHGQAAIEELIDAVKFTPALTGPHARLGGAAVGESATEEPMPDASNM | – | 4
